According to the supplement of paper PMC11246515:
± gives the standard deviation of the averaged measurements.

Assay: total protein half-life in vivo (active degradation + dilution); higher = more stable protein
[1] = E. coli NCM3722 delta-clpP delta-lon delta-hslV, growth: N-lim chemostat, doubling time 6 h
[2] = E. coli NCM3722 delta-clpP, growth: N-lim chemostat, doubling time 6 h
[3] = E. coli NCM3722 delta-hslV, growth: N-lim chemostat, doubling time 6 h
[4] = E. coli NCM3722 delta-lon, growth: N-lim chemostat, doubling time 6 h
[5] = E. coli NCM3722 delta-smpB, growth: N-lim chemostat, doubling time 6 h
[6] = wild type E. coli NCM3722, growth: C-lim chemostat, doubling time 3 h
[7] = wild type E. coli NCM3722, growth: C-lim chemostat, doubling time 6 h
[8] = wild type E. coli NCM3722, growth: C-lim chemostat, doubling time 12 h
[9] = wild type E. coli NCM3722, growth: N-lim chemostat, doubling time 6 h
[10] = wild type E. coli NCM3722, growth: N-lim chemostat, doubling time 12 h
[11] = wild type E. coli NCM3722, growth: P-lim chemostat, doubling time 6 h
[12] = wild type E. coli NCM3722, growth: P-lim chemostat, doubling time 12 h

Sequence: MSQPITRENFDEWMIPVYAPAPFIPVRGEGSRLWDQQGKEYIDFAGGIAVNALGHAHPELREALNEQASKFWHTGNGYTNEPVLRLAKKLIDATFADRVFFCNSGAEANEAALKLARKFAHDRYGSHKSGIVAFKNAFHGRTLFTVSAGGQPAYSQDFAPLPADIRHAAYNDINSASALIDDSTCAVIVEPIQGEGGVVPASNAFLQGLRELCNRHNALLIFDEVQTGVGRTGELYAYMHYGVTPDLLTTAKALGGGFPVGALLATEECARVMTVGTHGTTYGGNPLASAVAGKVLELINTPEMLNGVKQRHDWFVERLNTINHRYGLFSEVRGLGLLIGCVLNADYAGQAKQISQEAAKAGVMVLIAGGNVVRFAPALNVSEEEVTTGLDRFAAACEHFVSRGSS
- total protein half-life in vivo [1]: 3.59 ± 0.43 h
- total protein half-life in vivo [2]: 3.17 ± 0.87 h
- total protein half-life in vivo [3]: 2.47 ± 0.25 h
- total protein half-life in vivo [4]: 2.97 ± 0.5 h
- total protein half-life in vivo [5]: 2.79 ± 0.15 h
- total protein half-life in vivo [6]: 3.106 ± 0.012 h
- total protein half-life in vivo [7]: 4.44 ± 0.17 h
- total protein half-life in vivo [8]: 7.4513 ± 0.0042 h
- total protein half-life in vivo [9]: 2.67 ± 0.12 h
- total protein half-life in vivo [10]: 3.532 ± 0.018 h
- total protein half-life in vivo [11]: 5.09 ± 0.52 h
- total protein half-life in vivo [12]: 9.766 ± 0.073 h

Sequence: MGLMNAFDSQTEDSSPAIGRNLRSRPLARKKLSEMVEEELEQMIRRREFGEGEQLPSERELMAFFNVGRPSVREALAALKRKGLVQINNGERARVSRPSADTIIGELSGMAKDFLSHPGGIAHFEQLRLFFESSLVRYAAEHATDEQIDLLAKALEINSQSLDNNAAFIRSDVDFHRVLAEIPGNPIFMAIHVALLDWLIAARPTVTDQALHEHNNVSYQQHIAIVDAIRRHDPDEADRALQSHLNSVSATWHAFGQTTNKKK [P0A8W0]
- total protein half-life in vivo [1]: 5.49 ± 0.12 h
- total protein half-life in vivo [2]: 5.05 ± 0.14 h
- total protein half-life in vivo [3]: 3.63 ± 0.045 h
- total protein half-life in vivo [4]: 4.53 ± 0.93 h
- total protein half-life in vivo [5]: 3.48 ± 0.66 h
- total protein half-life in vivo [6]: 2.383 ± 0.0064 h
- total protein half-life in vivo [7]: 4.17 ± 0.12 h
- total protein half-life in vivo [8]: 6.39 ± 0.4 h
- total protein half-life in vivo [9]: 3.95 ± 0.16 h
- total protein half-life in vivo [10]: 5.27 ± 0.066 h
- total protein half-life in vivo [11]: 3.59 ± 0.14 h
- total protein half-life in vivo [12]: 6.29 ± 0.19 h

Sequence: MQDKDFFSWRRTMLLRFQRMETAEEVYHEIELQAQQLEYDYYSLCVRHPVPFTRPKVAFYTNYPEAWVSYYQAKNFLAIDPVLNPENFSQGHLMWNDDLFSEAQPLWEAARAHGLRRGVTQYLMLPNRALGFLSFSRCSAREIPILSDELQLKMQLLVRESLMALMRLNDEIVMTPEMNFSKREKEILRWTAEGKTSAEIAMILSISENTVNFHQKNMQKKINAPNKTQVACYAAATGLI
- total protein half-life in vivo [1]: 4.97 ± 0.28 h

Sequence: MEPLREIRNRLLNGWQLSKMHTFEVAARHQSFALAAEELSLSPSAVSHRINQLEEELGIQLFVRSHRKVELTHEGKRVYWALKSSLDTLNQEILDIKNQELSGTLTLYSRPSIAQCWLVPALGDFTRRYPSISLTVLTGNDNVNLQRAGIDLAIYFDDAPSAQLTHHFLMDEEILPVCSPEYAQRHALTNTVINLCHCTLLHDRQAWSNDSGTDEWHSWAQHYAVNLPTSSGIGFDRSDLAVIAAMNHIGVAMGRKRLVQKRLASGELVAPFGDMTVKCHQHYYITTLPGRQWPKIEAFIIWLREQVKTTS
- total protein half-life in vivo [1]: 5.88 h
- total protein half-life in vivo [2]: 5.73 ± 0.3 h
- total protein half-life in vivo [3]: 6.65 ± 0.47 h
- total protein half-life in vivo [4]: 7.48 ± 0.075 h
- total protein half-life in vivo [5]: 6.21 ± 1.6 h
- total protein half-life in vivo [6]: 2.74 h
- total protein half-life in vivo [8]: 11 ± 1.1 h
- total protein half-life in vivo [9]: 5.13 h

Sequence: MMNKSNFEFLKGVNDFTYAIACAAENNYPDDPNTTLIKMRMFGEATAKHLGLLLNIPPCENQHDLLRELGKIAFVDDNILSVFHKLRRIGNQAVHEYHNDLNDAQMCLRLGFRLAVWYYRLVTKDYDFPVPVFVLPERGENLYHQEVLTLKQQLEQQVREKAQTQAEVEAQQQKLVALNGYIAILEGKQQETEAQTQARLAALEAQLAEKNAELAKQTEQERKAYHKEITDQAIKRTLNLSEEESRFLIDAQLRKAGWQADSKTLRFSKGARPEPGVNKAIAEWPTGKDETGNQGFADYVLFVGLKPIAVVEAKRNNIDVPARLNESYRYSKCFDNGFLRETLLEHYSPDEVHEAVPEYETSWQDTSGKQRFKIPFCYSTNGREYRATMKTKSGIWYRDVRDTRNMSKALPEWHRPEELLEMLGSEPQKQNQWFADNPGMSELGLRYYQEDAVRAVEKAIVKGQQEILLAMATGTGKTRTAIAMMFRLIQSQRFKRILFLVDRRSLGEQALGAFEDTRINGDTFNSIFDIKGLTDKFPEDSTKIHVATVQSLVKRTLQSDEPMPVARYDCIVVDEAHRGYILDKEQTEGELQFRSQLDYVSAYRRILDHFDAVKIALTATPALHTVQIFGEPVYRYTYRTAVIDGFLIDQDPPIQIITRNAQEGVYLSKGEQVERISPQGEVINDTLEDDQDFEVADFNRGLVIPAFNRAVCNELTNYLDPTGSQKTLVFCVTNAHADMVVEELRAAFKKKYPQLEHDAIIKITGDADKDARKVQTMITRFNKERLPNIVVTVDLLTTGVDIPSICNIVFLRKVRSRILYEQMKGRATRLCPEVNKTSFKIFDCVDIYSTLESVDTMRPVVVRPKVELQTLVNEITDSETYKITEADGRSFAEHSHEQLVAKLQRIIGLATFNRDRSETIDKQVRRLDELCQDAAGVNFNGFASRLREKGPHWSAEVFNKLPGFIARLEKLKTDINNLNDAPIFLDIDDEVVSVKSLYGDYDTPQDFLEAFDSLVQRSPNAQPALQAVINRPRDLTRKGLVELQEWFDRQHFEESSLRKAWKETRNEDIAARLIGHIRRAAVGDALKPFEERVDHALTRIKGENDWSSEQLSWLDRLAQALKEKVVLDDDVFKTGNFHRRGGKAMLQRTFDDNLDTLLGKFSDYIWDELA
- total protein half-life in vivo [1]: 5.34 ± 0.76 h
- total protein half-life in vivo [2]: 4.93 ± 0.26 h
- total protein half-life in vivo [3]: 3.45 ± 0.22 h
- total protein half-life in vivo [4]: 3.899 ± 0.015 h
- total protein half-life in vivo [5]: 3.07 ± 0.13 h
- total protein half-life in vivo [6]: 2.49 ± 0.13 h
- total protein half-life in vivo [7]: 4.7 ± 0.1 h
- total protein half-life in vivo [8]: 7.2 ± 0.38 h
- total protein half-life in vivo [9]: 3.52 ± 0.2 h
- total protein half-life in vivo [10]: 5.31 ± 0.98 h
- total protein half-life in vivo [11]: 3.94 ± 0.11 h
- total protein half-life in vivo [12]: 6.58 ± 0.092 h

Sequence: MKISDGNWLIQPGLNLIHPLQVFEVEQQDNEMVVYAAPRDVRERTWQLDTPLFTLRFFSPQEGIVGVRIEHFQGALNNGPHYPLNILQDVKVTIENTERYAEFKSGNLSARVSKGEFWSLDFLRNGERITGSQVKNNGYVQDTNNQRNYMFERLDLGVGETVYGLGERFTALVRNGQTVETWNRDGGTSTEQAYKNIPFYMTNRGYGVLVNHPQCVSFEVGSEKVSKVQFSVESEYLEYFVIDGPTPKAVLDRYTRFTGRPALPPAWSFGLWLTTSFTTNYDEATVNSFIDGMAERNLPLHVFHFDCFWMKAFQWCDFEWDPLTFPDPEGMIRRLKAKGLKICVWINPYIGQKSPVFKELQEKGYLLKRPDGSLWQWDKWQPGLAIYDFTNPDACKWYADKLKGLVAMGVDCFKTDFGERIPTDVQWFDGSDPQKMHNHYAYIYNELVWNVLKDTVGEEEAVLFARSASVGAQKFPVHWGGDCYANYESMAESLRGGLSIGLSGFGFWSHDIGGFENTAPAHVYKRWCAFGLLSSHSRLHGSKSYRVPWAYDDESCDVVRFFTQLKCRMMPYLYREAARANARGTPMMRAMMMEFPDDPACDYLDRQYMLGDNVMVAPVFTEAGDVQFYLPEGRWTHLWHNDELDGSRWHKQQHGFLSLPVYVRDNTLLALGNNDQRPDYVWHEGTAFHLFNLQDGHEAVCEVPAADGSVIFTLKAARTGNTITVTGAGEAKNWTLCLRNVVKVNGLQDGSQAESEQGLVVKPQGNALTITL
- total protein half-life in vivo [1]: 5.8 h
- total protein half-life in vivo [2]: 5.9 ± 0.59 h
- total protein half-life in vivo [3]: 5.652 ± 0.053 h
- total protein half-life in vivo [5]: 5.11 ± 0.41 h
- total protein half-life in vivo [6]: 3.394 ± 0.019 h
- total protein half-life in vivo [7]: 6.93 ± 0.64 h
- total protein half-life in vivo [8]: 13 ± 0.71 h
- total protein half-life in vivo [9]: 6.27 h
- total protein half-life in vivo [10]: 12.7 ± 0.22 h
- total protein half-life in vivo [12]: 11.5 ± 2.9 h

Sequence: MATVNKQAIAAAFGRAAAHYEQHADLQRQSADALLAMLPQRKYTHVLDAGCGPGWMSRHWRERHAQVTALDLSPPMLVQARQKDAADHYLAGDIESLPLATATFDLAWSNLAVQWCGNLSTALRELYRVVRPKGVVAFTTLVQGSLPELHQAWQAVDERPHANRFLPPDEIEQSLNGVHYQHHIQPITLWFDDALSAMRSLKGIGATHLHEGRDPRILTRSQLQRLQLAWPQQQGRYPLTYHLFLGVIARE
- total protein half-life in vivo [1]: 4.79 ± 0.22 h
- total protein half-life in vivo [2]: 2.85 ± 0.37 h
- total protein half-life in vivo [5]: 0.556 h
- total protein half-life in vivo [10]: 1.13 h

Sequence: MNNIQIRNYQPGDFQQLCAIFIRAVTMTASQHYSPQQISAWAQIDESRWKEKLAKSQVWVAIINAQPVGFISRIEHYIDMLFVDPEYTRRGVASALLKPLIKSESELTVDASITAKPFFERYGFQTVKQQRVECRGAWFTNFYMRYKPQH
- total protein half-life in vivo [1]: 4.81 h
- total protein half-life in vivo [2]: 3.71 ± 0.28 h
- total protein half-life in vivo [3]: 3.82 h
- total protein half-life in vivo [5]: 2.9 h
- total protein half-life in vivo [7]: > 8 h
- total protein half-life in vivo [9]: > 8 h
- total protein half-life in vivo [12]: 9.48 ± 0.24 h
